Results reported in the supplement of paper PMC9732359.
± gives the uncertainty stated by the source.

Assay: protein stability index of a GFP-peptide fusion (yeast GPS) (PSI 1-4); higher = more stable; sorted into four equal gates, so the index is relative within each strain
In short: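 Tiled 17-residue yeast protein peptides were fused downstream of GFP in a plasmid that also expresses Cherry, and the pooled library was carried in yeast. Mid-log cultures in leucine-free medium were sorted into four equal gates by GFP/Cherry fluorescence ratio, and plasmids from each gate were PCR-amplified and Illumina-sequenced, with reads assigned to strains by barcodes. The protein stability index for each peptide was each gate's read frequency times its gate number, summed.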

Sequence	protein stability index (doa10∆)	protein stability index (pdr5∆)	protein stability index (san1∆)	protein stability index (ubr1∆)
DTFVHVTDLSGKETIAR [RPS14B]	2.88 ± 0.087	2.98 ± 0.066	2.83 ± 0.062	2.98 ± 0.058
ELIKNYITARIMAKRPF [FAS1]	2.93 ± 0.13	2.58 ± 0.26	3.03 ± 0.046	2.78 ± 0.21
IYSPEGLRLDGRRWNEL [SKI6]	1.42 ± 0.16	1.77 ± 0.19		
DDFMHSETREKELESID [RPB4]			2.74 ± 0.12	3.2 ± 0.19
KISLRDICLKLNLDSEQ [RPN3]	3.46 ± 0.12	3.34 ± 0.093		3.32 ± 0.11
SPIFEVLSDDAKKLSSF [ARP9]	2.84 ± 0.062	3.19 ± 0.11	2.88 ± 0.058	3 ± 0.069
SVSFKVFLLLQAYFSRL [BRR2]	1.39 ± 0.044	1.47 ± 0.063	1.22 ± 0.088	1.42 ± 0.051
LSSIAERVRNFAVIYLC [DIB1]	1.51 ± 0.083	2.04 ± 0.11	1.71 ± 0.11	1.88 ± 0.12
EKLLETNVSKQNDFLFS [ECM29]	2.64 ± 0.1	2.97 ± 0.093	1.53 ± 0.16	1.76 ± 0.089
SGNNYNDINISSIENNI [MED2]	3.01 ± 0.039	3.02 ± 0.036	2.89 ± 0.032	3.151 ± 0.031
VKALRNVPGVETANVAS [RPL4A]	2.76 ± 0.069	3.15 ± 0.062	2.98 ± 0.051	3.01 ± 0.048
PALESSPVTGDNSPSED [SNF2]	3.25 ± 0.067	3.29 ± 0.066	3.14 ± 0.069	3.33 ± 0.041
YCKGKTCRKHTQHKVTQ [RPL42A]	2.77 ± 0.094	3.06 ± 0.17	2.54 ± 0.12	2.91 ± 0.14
ESQQQDESLKDEATVPN [SWI3]	3.19 ± 0.079	3.36 ± 0.09	3.31 ± 0.15	3.21 ± 0.098
ESVELPLTHPELYEEMG [RPT2]	2.63 ± 0.077	2.94 ± 0.074	2.78 ± 0.07	2.74 ± 0.037
HQQQQQQQQQQQQQQQQ [SNF5]	2.78 ± 0.056	2.88 ± 0.049	2.88 ± 0.056	2.93 ± 0.055
TQRIMTNVIAFAFWNLL [YLR018C/POM34]	1.81 ± 0.069	2.13 ± 0.058	1.74 ± 0.16	1.58 ± 0.027
KILSPTMYMEVYTAIYN [CDC53]	1.58 ± 0.058	1.62 ± 0.061	1.63 ± 0.08	1.74 ± 0.055
IRAIRKVISEILTKEVQ [RPS1A]	1.714 ± 0.013	1.89 ± 0.012	1.83 ± 0.021	1.966 ± 0.011
DNDSLTDLESLSSGESN [SIR4]	3.15 ± 0.096	3.31 ± 0.12	3.07 ± 0.074	3.09 ± 0.073
HPPFIKYACLAIRKNGQ [SIN4]	1.45 ± 0.042	1.51 ± 0.039	1.68 ± 0.065	1.42 ± 0.031
KRINFEKIKDIHNTKLP [POP1]	2.42 ± 0.17	3.06 ± 0.13	2.87 ± 0.28	2.54 ± 0.076
SLELQSFQKIPLSRINE [YML103C/NUP188]	2.67 ± 0.12	2.82 ± 0.11	2.94 ± 0.07	2.88 ± 0.12
SGSAGANPAGASQPEPT [YJL041W/NSP1]	2.9 ± 0.18	3.2 ± 0.13	2.93 ± 0.1	3.15 ± 0.1
YDLNFKLRETLVKIDDL [SMC1]	3.05 ± 0.15	3.13 ± 0.13	3.01 ± 0.13	2.68 ± 0.14
QENGTIFRGSLIGCIPY [YDL088C/ASM4]	2.59 ± 0.052	2.57 ± 0.052	2.48 ± 0.061	2.5 ± 0.038
VIYRNSLYKVSFLEKPK [YMR129W/POM152]	2.49 ± 0.065	2.61 ± 0.081	2.42 ± 0.073	2.43 ± 0.12

Sequence	protein stability index (doa10∆)	protein stability index (pdr5∆)	protein stability index (san1∆)	protein stability index (ubr1∆)
QYEHLIKGIREYEEWQK [YDL116W/NUP84]	3.11 ± 0.1	2.99 ± 0.079	2.88 ± 0.13	2.62 ± 0.083
FDSELIHLKQKLSESLD [SMC3]		2.88 ± 0.17	3.22 ± 0.13	3.24 ± 0.14
SGQFYFRNPTPLLSNYA [RGR1]	1.36 ± 0.059	1.54 ± 0.045	1.8 ± 0.081	1.89 ± 0.044
HILLTELLAYQFASPVR [FAS2]	1.81 ± 0.019	1.7 ± 0.018	1.81 ± 0.027	1.768 ± 0.017
QLLTPGSKISSNDLDKF [YGL172W/NUP49]	2.88 ± 0.19	2.85 ± 0.084	3.13 ± 0.1	2.54 ± 0.2
IEEQGDALQDVEESSEK [DPB4]	3.02 ± 0.12	3.46 ± 0.079	3.13 ± 0.059	3.41 ± 0.075
IRVAETRGGASALIENN [YJL039C/NUP192]	2.39 ± 0.071	2.46 ± 0.089	3.1 ± 0.072	2.89 ± 0.055
SFIFQYYGLVIDLLLLG [PRP8]	1.48 ± 0.12	1.2 ± 0.054	1.15 ± 0.16	1.24 ± 0.05
LKFLYLLDAYSHIESDS [MED1]	2.46 ± 0.091	2.44 ± 0.075	2.8 ± 0.061	2.64 ± 0.057
SLDEILLPANLLSLNSV [SRP68]	3.13 ± 0.058	3.15 ± 0.058	3.14 ± 0.05	3.08 ± 0.031
NVRVGQAVETVGQAGRP [RPN1]	2.4 ± 0.11	3.14 ± 0.092	3.19 ± 0.072	3.02 ± 0.1
PNSERSGTPTLKKNIEP [YOR098C/NUP1]	3.32 ± 0.14	3.26 ± 0.097	2.72 ± 0.24	3.07 ± 0.082
APMDFAIVVGWRAIIKA [FAS1]	2.51 ± 0.086	2.66 ± 0.08	2.57 ± 0.082	2.14 ± 0.062
SKKQRNNGSKDHGDGIL [RPN9]	3.37 ± 0.13	2.85 ± 0.097	3.27 ± 0.057	2.78 ± 0.053
YYKNFHNSVKRYQIMLP [SNM1]	1.12 ± 0.042	1.36 ± 0.059	1.33 ± 0.11	1.47 ± 0.05
ESILQMNQGEGEPEAGN [RPC34]	3 ± 0.2	3.18 ± 0.093	3.46 ± 0.26	3 ± 0.13
DSLTQNNNNAPIIIYGT [YOR098C/NUP1]	2.69 ± 0.047	2.93 ± 0.041	2.8 ± 0.041	2.92 ± 0.038
HSFAVLLHERKLLNDLA [NUT1]	2.68 ± 0.049	2.49 ± 0.057	2.46 ± 0.086	2.71 ± 0.036
LHKNFESENFKIIALQP [RGR1]	2.56 ± 0.076	2.62 ± 0.078	2.7 ± 0.06	2.58 ± 0.073
GDHSSVPVALKGQGPFT [YMR129W/POM152]	1.87 ± 0.25			1.83 ± 0.2
LTTFANQVMMDRKIQGW [ARP7]	2.69 ± 0.081	2.62 ± 0.059	2.45 ± 0.076	2.65 ± 0.049
LILTSHNMKAYYKKFLI [BRR2]				2.54 ± 0.14
PSEDVAAPKKTRKAVRP [RPL6B]	2.74 ± 0.089	3.08 ± 0.1	2.93 ± 0.085	2.91 ± 0.073
VPPTIAQFQYTLDRNTA [RPL8A]	1.83 ± 0.06	2.06 ± 0.048	1.64 ± 0.095	1.68 ± 0.044
LVYNMTSFEQGEITFDG [RPT4]	2.65 ± 0.095	2.33 ± 0.079	2.97 ± 0.085	2.94 ± 0.17
EKIDGMDVDSVKTTLVS [RPC82]	2.54 ± 0.11	2.78 ± 0.12	2.73 ± 0.11	2.1 ± 0.29
